{
  "source": "paper PMC3591319",
  "about": "(PLoS Pathogens, 2013)",
  "molecules": {"B1": {"name": "2H10 (VHH without 6his-tag or myc tag) (VHH)", "VHH": "EVQLVESGGGLVQPGGSLRLSCAASGSISSVDVMSWYRQAPGKQRELVAFITDRGRTNYKVSVKGRFTISRDNSKNMVYLQMNSLKPEDTADYLCRAESRTSWSSPSPLDVWGRGTQVTVSS"}, "B2": {"name": "2H10 (llama anti-gp41 MPER VHH, monovalent, myc/His-tagged) (VHH)", "VHH": "B1 VHH", "notes": "also called 2H10 monohead; VHH 2H10"}},
  "key": {"[1]": {"biological_target": "gp41INT (soluble form of the fusion intermediate conformation of gp41) (not stated | HIV-1)", "assay": "SPR; Biacore 3000; gp41INT or gp41 528-683 immobilised to 1000 RU on CM-5; VHH injected 1 to 200 nM for 150 s; 10 mM HEPES, 150 mM NaCl, pH 7.4, 50 uM EDTA, 0.005% P-20; 1:1 Langmuir fit, or separate association and dissociation fits for 2H10 and 2H10-W100A on gp41INT"}, "[2]": {"biological_target": "gp140-92UG037 (recombinant Env gp140 of HIV-1 strain 92UG037) (HIV-1 clade A (92UG037))"}, "[3]": {"biological_target": "gp140-92UG037 (recombinant Env gp140 of HIV-1 strain 92UG037) (HIV-1 clade A (92UG037))", "assay": "SPR; Biacore T100; gp140-92UG037 immobilised on CM-5; single concentration injections of 100 nM VHH for 60 s; two-state reaction fit"}, "[4]": {"biological_target": "gp140-92UG037 (recombinant Env gp140 of HIV-1 strain 92UG037) (HIV-1 clade A (92UG037))", "assay": "SPR; Biacore T100; gp140-92UG037 immobilised to 1500 RU on CM-5; VHH injected at 6.25, 25, 100 and 400 nM for 60 s; 10 mM HEPES, 150 mM NaCl, pH 7.4, 0.005% Tween-20; two-state reaction fit (2H10), heterogeneous ligand and two-state fits (bi-2H10)"}, "[5]": {"biological_target": "gp41 528-683 (potential late fusion intermediate conformation of gp41) (HIV-1) (UniProt P04578)", "assay": "SPR; Biacore 3000; […]; 10 mM HEPES, 150 mM NaCl, […]; 1:1 Langmuir fit, […]"}, "[6]": {"biological_target": "gp140-92UG037 (recombinant Env gp140 of HIV-1 strain 92UG037) (HIV-1 clade A (92UG037))", "assay": "SPR"}, "[7]": {"biological_target": "T1, linear gp41 MPER peptide 655KNEQELLELDKWASL669 (HIV-1 clade B (HXB2 sequence))", "T1 chain": "KNEQELLELDKWASL", "assay": "ITC; 25 C; 10 uM 2H10 in the cell, about 100 uM peptide in the syringe; 20 mM HEPES pH 7.4, 100 mM NaCl; single binding site model", "conditions": "both partners purified"}, "[8]": {"biological_target": "T2, gp41CHRTM (HIV-1 gp41 C-terminal heptad repeat, MPER and transmembrane regions) (HIV-1 clade B (HXB2), UniProt P04578)", "T2 construct": "also called gp41 proteoliposomes; gp41CHRTM proteoliposomes", "assay": "ELISA", "conditions": "both partners purified"}},
  "data": [
    {"molecule": "2H10 (llama anti-gp41 MPER VHH, monovalent, myc/His-tagged)", "values": [
      {"measurement": "Kd", "setting": "[1]", "value": 29, "unit": "nM"},
      {"measurement": "IC50 of neutralisation of HIV-1 92UG037.A9 (molecular clone) in TZM-bl cells", "setting": "[2]", "value": "> 50", "unit": "µg/mL"},
      {"measurement": "IC50 of neutralisation of pseudovirus 92UG0378 in TZM-bl cells", "setting": "[2]", "value": "> 50", "unit": "µg/mL"},
      {"measurement": "Kd", "setting": "[3]", "value": 8, "unit": "nM"},
      {"measurement": "Kd", "setting": "[4]", "value": 4, "unit": "nM"}
    ]},
    {"molecule": "bi-2H10 with 15GS linker (bivalent 2H10) (VHH)", "values": [
      {"measurement": "Kd", "setting": "[1]", "value": 2.5, "unit": "nM"},
      {"measurement": "IC50 of neutralisation of HIV-1 92UG037.A9 (molecular clone) in TZM-bl cells", "setting": "[2]", "value": 2.4, "unit": "µg/mL"},
      {"measurement": "IC50 of neutralisation of pseudovirus 92UG0378 in TZM-bl cells", "setting": "[2]", "value": 4.66, "unit": "µg/mL"},
      {"measurement": "Kd", "setting": "[5]", "value": 1.1, "unit": "nM"},
      {"measurement": "Kd", "setting": "[4]", "value": 0.15, "unit": "nM"}
    ]},
    {"molecule": "2H10-S29F (VHH)", "values": [
      {"measurement": "Kd", "setting": "[6]", "value": 5.5, "unit": "nM"}
    ]},
    {"molecule": "2H10-W100A (VHH)", "values": [
      {"measurement": "Kd", "setting": "[6]", "value": 10.1, "unit": "nM"}
    ]},
    {"molecule": "bi-2H10 with 17GS linker (bivalent 2H10) (VHH)", "values": [
      {"measurement": "IC50 of neutralisation of HIV-1 92UG037.A9 (molecular clone) in TZM-bl cells", "setting": "[2]", "value": 28, "unit": "µg/mL"}
    ]},
    {"molecule": "2H10-R71S (VHH)", "values": [
      {"measurement": "Kd", "setting": "[6]", "value": 18.7, "unit": "nM"}
    ]},
    {"molecule": "B1", "values": [
      {"measurement": "Kd", "setting": "[7]", "value": 35, "unit": "nM"}
    ]},
    {"molecule": "B2", "values": [
      {"measurement": "binding result", "setting": "[8]", "value": "binds"}
    ]}
  ]
}
